B1: ARHGAP21 (natural protein, human (endogenous in Caco-2 and HCT116), UniProt Q5T5U3 1-1958, looked up)
chain: MMATRRTGLSEGDGDKLKACEVSKNKDGKEQSETVSLSEDETFSWPGPKTVTLKRTSQGFGFTLRHFIVYPPESAIQFSYKDEENGNRGGKQRNRLEPMDTIFVKQVKEGGPAFEAGLCTGDRIIKVNGESVIGKTYSQVIALIQNSDTTLELSVMPKDEDILQVLQFTKDVTALAYSQDAYLKGNEAYSGNARNIPEPPPICYPWLPSAPSAMAQPVEISPPDSSLSKQQTSTPVLTQPGRAYRMEIQVPPSPTDVAKSNTAVCVCNESVRTVIVPSEKVVDLLSNRNNHTGPSHRTEEVRYGVSEQTSLKTVSRTTSPPLSIPTTHLIHQPAGSRSLEPSGILLKSGNYSGHSDGISSSRSQAVEAPSVSVNHYSPNSHQHIDWKNYKTYKEYIDNRRLHIGCRTIQERLDSLRAASQSTTDYNQVVPNRTTLQGRRRSTSHDRVPQSVQIRQRSVSQERLEDSVLMKYCPRSASQGALTSPSVSFSNHRTRSWDYIEGQDETLENVNSGTPIPDSNGEKKQTYKWSGFTEQDDRRGICERPRQQEIHKSFRGSNFTVAPSVVNSDNRRMSGRGVGSVSQFKKIPPDLKTLQSNRNFQTTCGMSLPRGISQDRSPLVKVRSNSLKAPSTHVTKPSFSQKSFVSIKDQRPVNHLHQNSLLNQQTWVRTDSAPDQQVETGKSPSLSGASAKPAPQSSENAGTSDLELPVSQRNQDLSLQEAETEQSDTLDNKEAVILREKPPSGRQTPQPLRHQSYILAVNDQETGSDTTCWLPNDARREVHIKRMEERKASSTSPPGDSLASIPFIDEPTSPSIDHDIAHIPASAVISASTSQVPSIATVPPCLTTSAPLIRRQLSHDHESVGPPSLDAQPNSKTERSKSYDEGLDDYREDAKLSFKHVSSLKGIKIADSQKSSEDSGSRKDSSSEVFSDAAKEGWLHFRPLVTDKGKRVGGSIRPWKQMYVVLRGHSLYLYKDKREQTTPSEEEQPISVNACLIDISYSETKRKNVFRLTTSDCECLFQAEDRDDMLAWIKTIQESSNLNEEDTGVTNRDLISRRIKEYNNLMSKAEQLPKTPRQSLSIRQTLLGAKSEPKTQSPHSPKEESERKLLSKDDTSPPKDKGTWRKGIPSIMRKTFEKKPTATGTFGVRLDDCPPAHTNRYIPLIVDICCKLVEERGLEYTGIYRVPGNNAAISSMQEELNKGMADIDIQDDKWRDLNVISSLLKSFFRKLPEPLFTNDKYADFIEANRKEDPLDRLKTLKRLIHDLPEHHYETLKFLSAHLKTVAENSEKNKMEPRNLAIVFGPTLVRTSEDNMTHMVTHMPDQYKIVETLIQHHDWFFTEEGAEEPLTTVQEESTVDSQPVPNIDHLLTNIGRTGVSPGDVSDSATSDSTKSKGSWGSGKDQYSRELLVSSIFAAASRKRKKPKEKAQPSSSEDELDNVFFKKENVEQCHNDTKEESKKESETLGRKQKIIIAKENSTRKDPSTTKDEKISLGKESTPSEEPSPPHNSKHNKSPTLSCRFAILKESPRSLLAQKSSHLEETGSDSGTLLSTSSQASLARFSMKKSTSPETKHSEFLANVSTITSDYSTTSSATYLTSLDSSRLSPEVQSVAESKGDEADDERSELISEGRPVETDSESEFPVFPTALTSERLFRGKLQEVTKSSRRNSEGSELSCTEGSLTSSLDSRRQLFSSHKLIECDTLSRKKSARFKSDSGSLGDAKNEKEAPSLTKVFDVMKKGKSTGSLLTPTRGESEKQEPTWKTKIADRLKLRPRAPADDMFGVGNHKVNAETAKRKSIRRRHTLGGHRDATEISVLNFWKVHEQSGERESELSAVNRLKPKCSAQDLSISDWLARERLRTSTSDLSRGEIGDPQTENPSTREIATTDTPLSLHCNTGSSSSTLASTNRPLLSIPPQSPDQINGESFQNVSKNASSAANAQPHKLSETPGSKAEFHPCL
notes: also called ARHGA21; source: endogenous, Caco-2, Caco-2 ShPTEN, HCT116 and PTEN-/- HCT116 cells (lysate, membrane fraction, or fixed cells)
B2: GFP-labeled PTEN C124S-T383A (natural protein, UniProt P60484 1-403, looked up)
chain: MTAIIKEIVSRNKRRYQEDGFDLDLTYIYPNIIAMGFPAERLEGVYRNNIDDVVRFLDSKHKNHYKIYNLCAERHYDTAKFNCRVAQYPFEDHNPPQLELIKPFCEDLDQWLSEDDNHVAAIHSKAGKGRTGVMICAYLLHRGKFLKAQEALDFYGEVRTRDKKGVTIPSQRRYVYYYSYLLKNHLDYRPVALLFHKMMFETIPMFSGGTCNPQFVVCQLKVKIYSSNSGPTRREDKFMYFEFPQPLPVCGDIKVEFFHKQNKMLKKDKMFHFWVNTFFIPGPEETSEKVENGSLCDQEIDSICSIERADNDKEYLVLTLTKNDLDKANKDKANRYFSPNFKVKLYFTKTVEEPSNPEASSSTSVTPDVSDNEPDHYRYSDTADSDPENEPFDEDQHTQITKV
notes: also called CS-T383A; source: PTEN-/- HCT116 cells, transfected, in fixed cells
B3: PTEN (phosphatase and tensin homolog) (natural protein)
chain: not shown
notes: source: endogenous, HCT116 cells (fixed cells)

Key:
β-Arrestin1 [1] = target: T1, β-Arrestin1 (human (endogenous in Caco-2 and HCT116), UniProt P49407 1-418); assay: cell-based or functional assay
β-Arrestin1 [2] = target: T1, β-Arrestin1; assay: proximity ligation; Duolink II red kit on fixed, permeabilised cells; PTEN-/- HCT116 cells transfected 24 hr with GFP-tagged EV or PTEN constructs, HCT116 cells as positive control; signal as AI units, n = 35 cells per condition in triplicate; conditions: partners not purified

T1 sequence (P49407 whole entry): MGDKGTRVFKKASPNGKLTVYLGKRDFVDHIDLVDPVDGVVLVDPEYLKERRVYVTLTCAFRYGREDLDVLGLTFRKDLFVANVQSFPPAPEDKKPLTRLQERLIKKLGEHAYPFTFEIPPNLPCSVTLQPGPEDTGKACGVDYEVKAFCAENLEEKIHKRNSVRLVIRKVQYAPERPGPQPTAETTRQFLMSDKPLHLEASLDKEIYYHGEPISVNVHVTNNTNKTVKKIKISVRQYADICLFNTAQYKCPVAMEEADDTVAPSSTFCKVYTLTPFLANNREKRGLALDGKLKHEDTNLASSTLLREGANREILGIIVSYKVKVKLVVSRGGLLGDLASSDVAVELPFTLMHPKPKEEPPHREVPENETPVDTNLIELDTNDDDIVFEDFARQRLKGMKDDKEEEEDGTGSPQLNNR

| Binder | Cdc42-GTP (ADU, fold) in HCT116 cells after pep24 vs control peptide (β-Arrestin1 [1]) [fold change] | Cdc42-GTP (fold change, ADU) in Caco-2 cells after 10 μM pep24 vs control peptide (β-Arrestin1 [1]) [fold change] | PLA interaction AI (β-Arrestin1 [2]) [AI units] |
| --- | --- | --- | --- |
| B1 | 0.44 | 0.48 | 123 |
| B2 |  |  | 69.8 |
| B3 |  |  | 101 |
